Laboratory results published in the supplement of paper PMC7125110.
± gives the standard error. This sample holds only a part of the variants without activity.

B1: glmS ribozyme (parent)
chain: AUAAAAGCGCCAGAACUACAGAAAUGUAGUUGACGAGGAGGAGGUUUAUCGAAUUUUCGGCGGAUGCCUCCAAA

What was measured:
Conditions in all cases: with glucosamine-6-phosphate
glucosamine-6-phosphate [1] = variants of: B1; test: self-cleavage kobs at 640 uM GlcN6P; higher = faster cleavage; RNA array
Outline: (§1)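 Weighted Michaelis–Menten fits across concentrations supplied kcat and KM, based on kobs from one- or two-exponential decay fits to normalised per-tile medians. The data came from barcoded ribozyme variants transcribed in situ by E. coli RNA polymerase on sequenced MiSeq chips and tracked at 37 °C by a hybridised Cy3 probe. Glucosamine-6-phosphate (40 μM to 10 mM) in HEPES/KCl/Mg(OAc)2 buffer was flowed in.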

glucosamine-6-phosphate [2] = variants of: B1; test: self-cleavage kobs at 2500 uM GlcN6P; higher = faster cleavage; RNA array
Outline: as §1

glucosamine-6-phosphate [3] = variants of: B1; test: self-cleavage kobs at 10000 uM GlcN6P; higher = faster cleavage; RNA array
Outline: as §1

Variant | self-cleavage kobs at 640 uM GlcN6P (glucosamine-6-phosphate [1]) | self-cleavage kobs at 2500 uM GlcN6P (glucosamine-6-phosphate [2]) | self-cleavage kobs at 10000 uM GlcN6P (glucosamine-6-phosphate [3])
A14U G38A A53G | < 1e-05 s⁻¹ |  | 
G7A A15G U30C A48G U57A | < 1e-05 s⁻¹ | < 1e-05 s⁻¹ | 
A42C U49G C58A | < 1e-05 s⁻¹ | < 1e-05 s⁻¹ | 
A6U G37A U54A | < 1e-05 s⁻¹ |  | 
G9C G41U G44C | < 1e-05 s⁻¹ |  | 
G29A U30A U31C | 0.000152 ± 2.2e-05 s⁻¹ | 0.000309 ± 6.5e-05 s⁻¹ | 
G37U G38A G41U U49A A52U G59U C67A | < 1e-05 s⁻¹ |  | 
C11A U46C | < 1e-05 s⁻¹ |  | 
G7U G9A U31C G35A A52U | < 1e-05 s⁻¹ |  | 
A23C U69A | 0.000292 ± 0.0001 s⁻¹ | 0.000135 ± 2.9e-05 s⁻¹ | 9.83e-05 ± 4.3e-05 s⁻¹
G9A G60A C68G | < 1e-05 s⁻¹ |  | 
G51A U54C U55G | < 1e-05 s⁻¹ |  | 
G38C G40U U46A | < 1e-05 s⁻¹ |  | 
G32A U54A C68A | 0.000374 ± 0.00012 s⁻¹ | 0.000108 ± 4.1e-05 s⁻¹ | 
A12C A15U A39G | 0.000865 ± 0.00025 s⁻¹ | 0.00201 ± 0.00075 s⁻¹ | 0.003 ± 0.00075 s⁻¹
G38A C61U C68U | < 1e-05 s⁻¹ |  | 
G32U A52U C58U C61U | < 1e-05 s⁻¹ | < 1e-05 s⁻¹ | 
A42C C61U C68G C71U | < 1e-05 s⁻¹ |  | 

Variant | self-cleavage kobs at 640 uM GlcN6P (glucosamine-6-phosphate [1]) | self-cleavage kobs at 2500 uM GlcN6P (glucosamine-6-phosphate [2]) | self-cleavage kobs at 10000 uM GlcN6P (glucosamine-6-phosphate [3])
A12G A48U G63U | < 1e-05 s⁻¹ |  | 
A12U C19U U69A | 0.000392 ± 0.0001 s⁻¹ | 0.000303 ± 6e-05 s⁻¹ | 
C11U A48G C68U | < 1e-05 s⁻¹ |  | 
C16A A39U U54C | 0.000107 ± 2.9e-05 s⁻¹ | 0.000434 ± 9.7e-05 s⁻¹ | 0.000811 ± 0.00017 s⁻¹
A12U A15G G41A C61A | < 1e-05 s⁻¹ |  | 
A6G G37A U46A U54A | < 1e-05 s⁻¹ |  | < 1e-05 s⁻¹
C16U G60U C68A | < 1e-05 s⁻¹ |  | 
A6U A15G G62U U69G | 0.000197 ± 5.9e-05 s⁻¹ |  | 
A15C C16G G43U U56C A64U C68A | < 1e-05 s⁻¹ |  | 
G7C C11U G59U C61U | < 1e-05 s⁻¹ |  | 
C11G C71G | 0.000382 ± 0.00018 s⁻¹ |  | 
G37U A42C U56G | < 1e-05 s⁻¹ |  | 
C11A U46G C61G | < 1e-05 s⁻¹ | < 1e-05 s⁻¹ | 
G40C G41A G43U | < 1e-05 s⁻¹ |  | 
G9C G29A G41A | < 1e-05 s⁻¹ | < 1e-05 s⁻¹ | 
A15U A33U C70U | < 1e-05 s⁻¹ |  | 
C11U A42U U55G G63U C68U | < 1e-05 s⁻¹ | < 1e-05 s⁻¹ | 
